# Measured values reported in the nanobody polyreactivity screen of Harvey et al. (2022).
# Experiment: yeast display, Sf9 membrane polyspecificity reagent, FACS + sequencing; frameworks hold sequencing errors
# How it was run: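 Using colony PCR, genes from sorted yeast display clones were amplified, then sequenced on MiSeq at 2 × 250 and filtered by CDR length. The clones had been stained with 10% biotinylated, detergent-solubilized Sf9 membrane reagent for 1 hour at 4 °C and sorted by FACS into low and high (top ~1%) gates on anti-HA and streptavidin fluorescence. Polyreactivity labels come from the gate of origin.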
row,Sequence,polyreactivity (PSR sort gate)
1,QVQLVESGGGLVQAGGSLRLSCAASGITFGNYAMGWYRQAPGKERELVAAITGSGGRTYYADSVKGRFTISRDNAKNTVYLQMNSLKPEDTAVYYCNRRQYGRKKQYDYWGQGTQVTVSS,high polyreactivity
2,QVQLVESGGGLVQAGGSLRLSCAASGITFGPNAMGWYRQAPGKERELVAAISWRGGSTYYADSVKGRFTISRDNAKNTVYLQMNSLKPEDTAVYYCAKVQIPASYIRYDYWGQGTQVTVSS,low polyreactivity
3,QVQLVESGGGLVQAGGSLRLSCAASGITFGPYAMGWYRQAPGKERELVAAISAGGGSTYYADSVKGRFTISRDNAKNTVYLQMNSLKPEDTAVYYCAAYLLHHYGGPEYYYWGQGTQVTVSS,high polyreactivity
4,QVQLVESGGGLVQAGGSLRLSCAASGITFGPYAMGWYRQAPGKERELVAAISYSGGRTYYADSVKGRFTISRDNAKNTVYLQMNSLKPEDTAVYFCARRYGYFGYEYDYWGQGTQVTVSS,high polyreactivity
5,QVQLVESGGGLVQAGGSLRLSCAASGITFGRHTMGWYRQAPGKERELVAAIDSGGNTYADSVKGRFTISRDNAKNTVYLQMNSLKPEDTAVYYCAVDGGEFSSYGYWGQGTQVTVSS,low polyreactivity
6,QVQLVESGGGLVQAGGSLRLSCAASGITFGRNAMGWYRQAPGKERELVAAISRGGSTNYADSVKGRFTISRDNAKNTVYLQMNSLKPEDTAVYYGNARSWPHGSWIPIHRRSGYWGQGTQVTVSS,high polyreactivity
7,QVQLVESGGGLVQAGGSLRLSCAASGITFGRNTMGWYRQAPGKERELVAAIDSGGNTYADSVKGRFTISRDNAKNTVYLQMNSLKPEDTAVYYCAVDGGEFSSSGYWGQGTQVPVSS,low polyreactivity
8,QVQLVESGGGLVQAGGSLRLSCAASGITFGRNTMGWYRQAPGKERELVAAIDSGGNTYADSVKGRFTISRDNEKNTVYLQMNSLKPEDTAVYYCAVDCGEFSSYGYWGQGTQVTVSS,low polyreactivity
9,QVQLVESGGGLVQAGGSLRLSCAASGITFGRYAMGWYRQAPGKERELVAAITWSGGSTYYADSVKGRFTISRDNSKNTVYLQMNSLKPEDTAVYYCAATWYPGRAGYYYWGQGTQVTVSS,high polyreactivity
10,QVQLVESGGGLVQAGGSLRLSCAASGITFGSYAMGRYRQAPGKERELVAAIDTSGDDTYYADSVKGRFTISRDNAKNTVYLQMNSLKPEDTAVYYCAAEFPSAEVDYWGQGTQVTVSS,low polyreactivity
11,QVQLVESGGGLVQAGGSLRLSCAASGITFGSYAMGWYRQAPGKEREFVAAISLSGGNTYYADSEKGRFTISRDNAKNPVYLQMNSLKPEDTAVYYCAADPFSSYYKMEYWGQGTQVTVSS,high polyreactivity
12,QVQLVESGGGLVQAGGSLRLSCAASGITFGSYDMGWYRQAPGKERELVAAIDSDGGTYYADSVKGRFTISRDNAKNTVYLQMNSLKPEDTAVYYCAALLRSFPPYSFYYWGQGTQVTVSS,high polyreactivity
13,QVQLVESGGGLVQAGGSLRLSCAASGITFGTYTMGWYRQAPGKERELVAAISRSGTGTYYADSVKGRFTISRDNAKNTVYLQMNSLKPEDTAVYYCAAAGYIYYGYEYLYGFEYWGQGTQVTVSS,high polyreactivity
14,QVQLVESGGGLVQAGGSLRLSCAASGITFGVYAMGWYRQAPGKERELVAAISSGDSTYYADSVKGRFTISRDNAKNTVYLQMNSLKPEDTAVYYCNAYYGVFYWDAEYGYDYWGQGTQVTVSS,high polyreactivity
15,QVQLVESGGGLVQAGGSLRLSCAASGITFGWYAMGWYRQAPGKERELVAAISGRGGRTYYADSVKGRFKISRDNAKNTVYLQMNSLKPEDTAVYYCAARARRWSYITGSYVLIEYEYWGQGTQVTVSS,high polyreactivity
16,QVQLVESGGGLVQAGGSLRLSCAASGITFGWYAMGWYRQAPGKERELVAAISGRGGRTYYADSVKGRFTISRDNAKYTVYLQMNSLKPEVTAVYYCAARARRWSYITGSYVLIEYEYWGQGTQVTVSS,high polyreactivity
17,QVQLVESGGGLVQAGGSLRLSCAASGITFGYNAMGWYRQAPGKERELVASISYSGDSTYYADSVKGRFTISRDNAKNTVYLQMNSLKPEDTAVYYCNVRNRPGGEINDYDYWGQGTQVTVSS,low polyreactivity
